Experiment [1] concerns the target T1, full-length human CD137 (huCD137) (human, UniProt Q07011 24-255).
T1 construct: On transduced Hut78 cells (Hut78/huCD137), transiently on HEK293 cells, or natively on PBMC/T cells; also called TNFRSF9; 4-1BB
In words: flow cytometry on Hut78/huCD137 cells. For orientation: A flow cytometer gives signals particle by particle.

In experiment [2] the target is human CD137 ECD-mIgG2a (human). In words: SPR, antibody captured on anti-human Fc surface; analyte taken as human CD137 ECD-mIgG2a. (In general: In SPR one partner is held on a chip, and binding of the other changes the refractive index at the surface.)
For experiment [3], the target named is T1, full-length human CD137 (huCD137). Kind of experiment: cell-based or functional assay.

human CD137 ECD-mIgG2a (human), sequence (chain, as listed by the source limits assumed): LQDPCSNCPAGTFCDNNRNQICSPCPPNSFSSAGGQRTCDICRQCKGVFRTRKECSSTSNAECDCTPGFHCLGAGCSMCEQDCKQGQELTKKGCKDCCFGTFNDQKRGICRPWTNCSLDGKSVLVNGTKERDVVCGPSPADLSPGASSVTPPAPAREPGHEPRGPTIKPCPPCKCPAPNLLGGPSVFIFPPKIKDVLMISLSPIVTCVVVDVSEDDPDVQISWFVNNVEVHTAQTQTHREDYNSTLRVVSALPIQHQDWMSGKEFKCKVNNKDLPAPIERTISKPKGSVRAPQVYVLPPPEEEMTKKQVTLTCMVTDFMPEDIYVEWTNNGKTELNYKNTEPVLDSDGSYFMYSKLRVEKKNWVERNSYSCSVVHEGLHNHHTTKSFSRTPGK
T1 sequence (Q07011 24-255 limits assumed): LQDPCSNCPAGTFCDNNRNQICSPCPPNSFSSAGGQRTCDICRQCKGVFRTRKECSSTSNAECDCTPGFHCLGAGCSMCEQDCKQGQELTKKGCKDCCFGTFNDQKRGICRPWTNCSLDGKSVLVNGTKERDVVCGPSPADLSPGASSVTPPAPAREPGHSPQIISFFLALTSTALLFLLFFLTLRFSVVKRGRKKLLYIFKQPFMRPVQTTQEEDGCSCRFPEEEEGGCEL

B1: A-CD137×CEA-M1 (bispecific antibody, human IgG1, kappa)
heavy: QVQLVQSGAEVKKPGASVKVSCKASGYIFTSYYLHWVRQAPGQGLEWIGYINPQTGKTSYAQKFQGRVTMTRDTSTSTVYMELSSLRSEDTAVYYCAREYGNYNYPLDYWGQGTLVTVSSASTKGPSVFPLAPSSKSTSGGTAALGCLVKDYFPEPVTVSWNSGALTSGVHTFPAVLQSSGLYSLSSVVTVPSSSLGTQTYICNVNHKPSNTKVDKKVEPKSCDKTHTCPPCPAPPAAGPSVFLFPPKPKDTLMISRTPEVTCVVVDVSHEDPEVKFNWYVDGVEVHNAKTKPREEQYNSTYRVVSVLTVLHQDWLNGKEYKCKVSNKALAAPIEKTISKAKGQPREPQVYTLPPSREEMTKNQVSLTCLVKGFYPSDIAVEWESNGQPENNYKTTPPVLDSDGSFFLYSKLTVDKSRWQQGNVFSCSVMHEALHNHYTQKSLSLSPGKGGGGSEVQLLESGGGLVQPGGSLRLSCAASGFTLSAEDMGWVRQAPGKGLEWVSAILDFGGSTYYAESVKGRFTISRDNAKNTLYLQMSSLRAEDTAVYYCARVVYHAGGGVTFDYWGQGTLVTVSS
light: DIQMTQSPSSLSASVGDRVTITCRASENQYGYLAWYQQKPGKVPKLLIYNYKNLVEGVPSRFSGSGSGTDFTLTISSLQPEDVATYYCQHHLGTPYTFGQGTKVEIKRTVAAPSVFIFPPSDEQLKSGTASVVCLLNNFYPREAKVQWKVDNALQSGNSQESVTEQDSKDSTYSLSSTLTLSKADYEKHKVYACEVTHQGLSSPVTKSFNRGEC
As to B1, the binding result in experiment [1] is “binds”. For the same molecule, in experiment [2], the affinity, expressed as Kd, was 0.586 µM; the koff was determined as 0.00455 s⁻¹; the kon amounted to 7770 M⁻¹ s⁻¹.

B2: BE-755 (ZW1+2) (bispecific antibody, human IgG1, L234A L235A)
heavy 1: QVQLVQSGAEVKKPGASVKVSCKASGYIFTSYYLHWVRQAPGQGLEWIGYINPQTGKTSYAQKFQGRVTMTRDTSTSTVYMELSSLRSEDTAVYYCAREYGNYNYPLDYWGQGTLVTVSSASTKGPSVFPLAPSSKSTSGGTAWLGCEVTDYFPEPVTVSWNSGALTSGVHTFPAVLESSGLYSLSSVVTVPSSSLGTQTYICNVNHKPSNTKVDKKVEPKSCDKTHTCPPCPAPEAAGGPSVFLFPPKPKDTLMISRTPEVTCVVVSVSHEDPEVKFNWYVDGVEVHNAKTKPREEQYNSTYRVVSVLTVLHQDWLNGKEYKCKVSNKALPAPIEKTISKAKGQPREPQVYVLPPSRDELTKNQVSLLCLVKGFYPSDIAVEWESNGQPENNYLTWPPVLDSDGSFFLYSKLTVDKSRWQQGNVFSCSVMHEALHNHYTQKSLSLSPGK
light: DIQMTQSPSSLSASVGDRVTITCRASENQYGYLAWYQQKPGKVPKLLIYNYKNLVEGVPSRFSGSGSGTDFTLTISSLQPEDVATYYCQHHLGTPYTFGQGTKVEIKRTVAAPSVAIFPPSDERLKSGTASVVCVLNNFYPREAKVQWKVDNALQSGNSQESVTEQDSKDSTYSLSSRLTLSKADYEKHKVYACEVTHQGLSSPVTKSFNRGEC
heavy 2: not shown
For the molecule B2, the “Functional assay EC50 (ug/ml), in vitro CD137 activation (PBMC cytokine release)” value (from here on “Functional assay EC50 (ug/ml)”) in experiment [3] is 1.16 µg/mL.

B3: BE-942 (ZW 1+1) (bispecific antibody, human IgG1, L234A L235A)
heavy 1: QVQLVQSGAEVKKPGASVKVSCKASGYIFTSYYLHWVRQAPGQGLEWIGYINPQTGKTSYAQKFQGRVTMTRDTSTSTVYMELSSLRSEDTAVYYCAREYGNYNYPLDYWGQGTLVTVSSASTKGPSVFPLAPSSKSTSGGTAWLGCEVTDYFPEPVTVSWNSGALTSGVHTFPAVLESSGLYSLSSVVTVPSSSLGTQTYICNVNHKPSNTKVDKKVEPKSCDKTHTCPPCPAPEAAGGPSVFLFPPKPKDTLMISRTPEVTCVVVSVSHEDPEVKFNWYVDGVEVHNAKTKPREEQYNSTYRVVSVLTVLHQDWLNGKEYKCKVSNKALPAPIEKTISKAKGQPREPQVYVLPPSRDELTKNQVSLLCLVKGFYPSDIAVEWESNGQPENNYLTWPPVLDSDGSFFLYSKLTVDKSRWQQGNVFSCSVMHEALHNHYTQKSLSLSPGK
light: DIQMTQSPSSLSASVGDRVTITCRASENQYGYLAWYQQKPGKVPKLLIYNYKNLVEGVPSRFSGSGSGTDFTLTISSLQPEDVATYYCQHHLGTPYTFGQGTKVEIKRTVAAPSVAIFPPSDERLKSGTASVVCVLNNFYPREAKVQWKVDNALQSGNSQESVTEQDSKDSTYSLSSRLTLSKADYEKHKVYACEVTHQGLSSPVTKSFNRGEC
heavy 2: not shown
On to B3, for which the “Functional assay EC50 (ug/ml)” value in experiment [3] worked out at 25.1 µg/mL.

B4: BE-562 (E-muFc-BGA-5623) (bispecific antibody)
heavy: EVQLLESGGGLVQPGGSLRLSCAASGFTVSAEDVGWVRQAPGKGLEWVSAILDKGGSTYYAESVKGRFTISRDNAKNTLYLQMSSLRAEDTAVYYCARIVYHAGGGVTFDTRGQGTQVTVSSEPKSSDKTHTCPPCPAPPAAGPSVFLFPPKPKDTLMISRTPEVTCVVVDVSHEDPEVKFNWYVDGVEVHNAKTKPREEQYNSTYRVVSVLTVLHQDWLNGKEYKCKVSNKALAAPIEKTISKAKGQPREPQVYTLPPSREEMTKNQVSLTCLVKGFYPSDIAVEWESNGQPENNYKTTPPVLDSDGSFFLYSKLTVDKSRWQQGNVFSCSVMHEALHNHYTQKSLSLSPGKGGGGSQVQLVQSGAEVKKPGASVKVSCKASGYIFTSYYLHWVRQAPGQGLEWIGYINPQTGKTSYAQKFQGRVTMTRDTSTSTVYMELSSLRSEDTAVYYCAREYGNYNYPLDYWGQGTLVTVSSASTKGPSVFPLAPSSKSTSGGTAALGCLVKDYFPEPVTVSWNSGALTSGVHTFPAVLQSSGLYSLSSVVTVPSSSLGTQTYICNVNHKPSNTKVDKKVEPKSCD
light: DIQMTQSPSSLSASVGDRVTITCRASENQYGYLAWYQQKPGKVPKLLIYNYKNLVEGVPSRFSGSGSGTDFTLTISSLQPEDVATYYCQHHLGTPYTFGQGTKVEIKRTVAAPSVFIFPPSDEQLKSGTASVVCLLNNFYPREAKVQWKVDNALQSGNSQESVTEQDSKDSTYSLSSTLTLSKADYEKHKVYACEVTHQGLSSPVTKSFNRGEC
In the case of B4, the “Functional assay EC50 (ug/ml)” value in experiment [3] turned out to be 4.69 µg/mL.

B5: BE-375 (E-IgG1-BGA-5623) (bispecific antibody)
heavy: not shown
light: DIQMTQSPSSLSASVGDRVTITCRASENQYGYLAWYQQKPGKVPKLLIYNYKNLVEGVPSRFSGSGSGTDFTLTISSLQPEDVATYYCQHHLGTPYTFGQGTKVEIKRTVAAPSVFIFPPSDEQLKSGTASVVCLLNNFYPREAKVQWKVDNALQSGNSQESVTEQDSKDSTYSLSSTLTLSKADYEKHKVYACEVTHQGLSSPVTKSFNRGEC
Take B5: the “Functional assay EC50 (ug/ml)” value in experiment [3] turned out to be 1.76 µg/mL.

B6: BE-244 (A-(G4S)3-BGA-5623) (bispecific antibody, human IgG1, kappa)
heavy: QVQLVQSGAEVKKPGASVKVSCKASGYIFTSYYLHWVRQAPGQGLEWIGYINPQTGKTSYAQKFQGRVTMTRDTSTSTVYMELSSLRSEDTAVYYCAREYGNYNYPLDYWGQGTLVTVSSASTKGPSVFPLAPSSKSTSGGTAALGCLVKDYFPEPVTVSWNSGALTSGVHTFPAVLQSSGLYSLSSVVTVPSSSLGTQTYICNVNHKPSNTKVDKKVEPKSCDKTHTCPPCPAPPAAGPSVFLFPPKPKDTLMISRTPEVTCVVVDVSHEDPEVKFNWYVDGVEVHNAKTKPREEQYNSTYRVVSVLTVLHQDWLNGKEYKCKVSNKALAAPIEKTISKAKGQPREPQVYTLPPSREEMTKNQVSLTCLVKGFYPSDIAVEWESNGQPENNYKTTPPVLDSDGSFFLYSKLTVDKSRWQQGNVFSCSVMHEALHNHYTQKSLSLSPGKGGGGSGGGGSGGGGSEVQLLESGGGLVQPGGSLRLSCAASGFTVSAEDVGWVRQAPGKGLEWVSAILDKGGSTYYAESVKGRFTISRDNAKNTLYLQMSSLRAEDTAVYYCARIVYHAGGGVTFDTRGQGTQVTVSS
light: DIQMTQSPSSLSASVGDRVTITCRASENQYGYLAWYQQKPGKVPKLLIYNYKNLVEGVPSRFSGSGSGTDFTLTISSLQPEDVATYYCQHHLGTPYTFGQGTKVEIKRTVAAPSVFIFPPSDEQLKSGTASVVCLLNNFYPREAKVQWKVDNALQSGNSQESVTEQDSKDSTYSLSSTLTLSKADYEKHKVYACEVTHQGLSSPVTKSFNRGEC
Turning to B6, the “Functional assay EC50 (ug/ml)” value in experiment [3] was 0.18 µg/mL.

B7: A-CD137×CEA-M2 (bispecific antibody)
heavy: QVQLVQSGAEVKKPGASVKVSCKASGYIFTSYYLHWVRQAPGQGLEWIGYINPQTGKTSYAQKFQGRVTMTRDTSTSTVYMELSSLRSEDTAVYYCAREYGNYNYPLDYWGQGTLVTVSSASTKGPSVFPLAPSSKSTSGGTAALGCLVKDYFPEPVTVSWNSGALTSGVHTFPAVLQSSGLYSLSSVVTVPSSSLGTQTYICNVNHKPSNTKVDKKVEPKSCDKTHTCPPCPAPPAAGPSVFLFPPKPKDTLMISRTPEVTCVVVDVSHEDPEVKFNWYVDGVEVHNAKTKPREEQYNSTYRVVSVLTVLHQDWLNGKEYKCKVSNKALAAPIEKTISKAKGQPREPQVYTLPPSREEMTKNQVSLTCLVKGFYPSDIAVEWESNGQPENNYKTTPPVLDSDGSFFLYSKLTVDKSRWQQGNVFSCSVMHEALHNHYTQKSLSLSPGKGGGGSEVQLLESGGGLVQPGGSLRLSCAASGRTLSAEDMGWVRQAPGKGLEWVSAILDFGGSTYYAESVKGRFTISRDNAKNTLYLQMSSLRAEDTAVYYCARVVYHAGGGVTFDYWGQGTLVTVSS
light: DIQMTQSPSSLSASVGDRVTITCRASENQYGYLAWYQQKPGKVPKLLIYNYKNLVEGVPSRFSGSGSGTDFTLTISSLQPEDVATYYCQHHLGTPYTFGQGTKVEIKRTVAAPSVFIFPPSDEQLKSGTASVVCLLNNFYPREAKVQWKVDNALQSGNSQESVTEQDSKDSTYSLSSTLTLSKADYEKHKVYACEVTHQGLSSPVTKSFNRGEC
notes: V35M as printed
B7: the “EC50 (read off the curve)” value in experiment [1] was about 2 mg/L. Further, in experiment [2], binding was put at a Kd of 0.232 µM, the koff is 0.0105 s⁻¹ and the kon was determined as 45200 M⁻¹ s⁻¹.

B8: A-CD137×CEA-M4 (bispecific antibody, human IgG1, kappa)
heavy: QVQLVQSGAEVKKPGASVKVSCKASGYIFTSYYLHWVRQAPGQGLEWIGYINPQTGKTSYAQKFQGRVTMTRDTSTSTVYMELSSLRSEDTAVYYCAREYGNYNYPLDYWGQGTLVTVSSASTKGPSVFPLAPSSKSTSGGTAALGCLVKDYFPEPVTVSWNSGALTSGVHTFPAVLQSSGLYSLSSVVTVPSSSLGTQTYICNVNHKPSNTKVDKKVEPKSCDKTHTCPPCPAPPAAGPSVFLFPPKPKDTLMISRTPEVTCVVVDVSHEDPEVKFNWYVDGVEVHNAKTKPREEQYNSTYRVVSVLTVLHQDWLNGKEYKCKVSNKALAAPIEKTISKAKGQPREPQVYTLPPSREEMTKNQVSLTCLVKGFYPSDIAVEWESNGQPENNYKTTPPVLDSDGSFFLYSKLTVDKSRWQQGNVFSCSVMHEALHNHYTQKSLSLSPGKGGGGSEVQLLESGGGLVQPGGSLRLSCAASGRTLSAEDVGWVRQAPGKGLEWVSAILDFGGSTYYAESVKGRFTISRDNAKNTLYLQMSSLRAEDTAVYYCARVVYHAGGGVTFDYWGQGTLVTVSS
light: DIQMTQSPSSLSASVGDRVTITCRASENQYGYLAWYQQKPGKVPKLLIYNYKNLVEGVPSRFSGSGSGTDFTLTISSLQPEDVATYYCQHHLGTPYTFGQGTKVEIKRTVAAPSVFIFPPSDEQLKSGTASVVCLLNNFYPREAKVQWKVDNALQSGNSQESVTEQDSKDSTYSLSSTLTLSKADYEKHKVYACEVTHQGLSSPVTKSFNRGEC
For the molecule B8, the binding result in experiment [1] was “binds”. Moreover, in experiment [2], binding was characterised by a dissociation constant (Kd) of 0.194 µM, the koff was found to be 0.0247 s⁻¹ and the kon was 127000 M⁻¹ s⁻¹.

For orientation: Kd means the concentration at which binding is half-saturated. In general, koff refers to the rate constant with which the complex falls apart. Read a high koff as fast dissociation. The term kon denotes the rate constant with which the complex forms. The low end stands for slow association, the high end for fast association. As a reminder, the EC50 (read off the curve) is the midpoint of the concentration-response curve.

The values are drawn from patent US20240209106A1 (BEIGENE SWITZERLAND, published 2024).
